Reference: patent publication US7387779B2, “Anti-angiogenic proteins and fragments and methods of use thereof” (Beth Israel Deaconess Medical Center, priority 1998, dated 2008)

Experiments:
C-PAE cells = test: Cell attachment assay; assay type: cell-based, bovine
Protocol: (§1) The attachment of HUVECs to Tumstatin-coated plates in the presence of integrin subunits α1 through α6, β1, and αvβ3 integrin blocking antibody was examined. This assay was performed according to the method of Senger et al. (Senger, D. R. et al, 1997, Proc. Natl. Acad. Sci. USA 94:13612-7), with minor modification. 96-well plates were coated with either human Tumstatin, mouse laminin-1, or human Type IV collagen (Collaborative Biomedical Prods., Bedford, Mass., USA) at a concentration of 10 μg/ml overnight at 37° C. Vitronectin (Collaborative Biomed. Prods.) at a concentration of 0.5 μg/ml was then used to coat the plates. The remaining protein binding sites were blocked with 100 mg/ml of BSA (Sigma Chemical Co., St. Louis, Mo., USA) in PBS for 2 hours. HUVEC cells were grown to subconfluence (70-80%) in EGM-2 medium, gently trypsinized and resuspended in serum-free medium (1.5×10^5 cells/ml). The cells were mixed with 10 μg/ml of either mouse IgG, (control) (Life Technologies/Gibco BRL, Gaithersberg, Md., USA) or antibody (mouse monoclonal antibody to the human β1 integrin (clone P4C10) (Life Technologies/Gibco BRL); monoclonal antibody to human integrins α1 through α.6 (CHEMICON Int'l, Temecula, Calif., USA); αvβ3 integrin (clone LM609) (CHEMICON Int'l) and incubated for 15 minutes at room temperature, with gentle agitation. One hundred microliters of the cell suspension was then added to each well and incubated for 45 minutes at 37° C. Unattached cells were removed by washing, and the number of attached cells were counted after staining with methylene blue. C-PAE cells were used in separate experiments, following the above procedure.
To determine the attachment of C-PAE cells to plates coated with the Tumstatin deletion mutants, the cell attachment assay was performed as described above (see, e.g., Example 28). Rabbit antibody raised against Tum-4 was prepared as previously described (Kalluri et al., 1997, J. Clin. Invest. 99:2470-8). Goat anti-rabbit IgG antibody conjugated with horseradish peroxidase was purchased from Sigma Chemical Company (St. Louis, Mo., USA). […] Plates coated with Tum-1 (FIG. 36A) were also treated with anti-Tum-4 antibody (1:200 dilution) to block the previously reported (Shahan et al, 1999, Cancer Res. 59:4584-90) αvβ3 binding site, as well as the αvβ5 binding site.
(§2) Cell Attachment Activity: Cell attachment using endothelial cells was performed as described above. HUVEC or C-PAE cells were incubated with monoclonal anti-human integrin antibodies, control mouse IgG (10 μg/ml), or synthetic peptide, plated onto pre-coated 96-well plates, and the number of cells attaching to the plates was determined using measurement of methylene blue staining at OD655. […] CNGRC peptide was used as a control.
(§3) The cell attachment assay was performed as described above.
Tumstatin produced in 293 human embryonic kidney cells was used to coat tissue culture plates. […] PBS and BSA served as positive and negative controls, respectively.

PC-3 tumors = conditions: for tumor volume on day 10: 20 mg/kg i.p. daily for 10 days, control 202.8±50.0
Protocol: In a second PC-3 experiment, PC-3 cells were harvested from culture and 3 million cells were injected into 6- to 7-week-old athymic nude mice, and tumors were allowed to grow subcutaneously for approximately 2 weeks after which the animals were divided into groups of four mice. Experimental groups (4 mice) were injected daily I.P. with Canstatin at a dosage of 3 mg/kg in a total volume of 0.2 ml of PBS or endostatin at a dosage of 8 mg/kg in the same volume of PBS. The control group (4 mice) received equal volumes of PBS each day. Tumor length and width were measured using a Vernier caliper and the tumor volume was calculated using the standard formula: length×width^2×0.52. Tumor volumes ranged from 26 mm^3 to 73 mm^3, and the calculated tumor volume on a given day was divided by the volume on treatment day 0 to produce a fractional tumor volume (V/V0), as described above.

786-O tumors = test: 786-O renal cell carcinoma xenograft; assay type: in vivo, athymic nude mice; conditions: for inhibition of tumor growth compared to placebo: 10 mg/kg I.P. daily, 10 days
Protocol: In the first group of six mice, the tumors were allowed to grow to about 700 mm^3. In a second group of six mice, the tumors were allowed to group to 100 mm^3. Arresten in sterile PBS was injected I.P. daily for 10 days, at a concentration of 20 mg/kg for the mice with tumors of 700 mm^3, and 10 mg/kg for the mice with tumors of 100 mm^3. Control mice received either BSA or the PBS vehicle. […] Tumors in the Arresten-treated mice shrank from 700 to 500 mm^3, while tumors in BSA-treated and control mice grew to about 1200 mm^3 in 10 days. […] The tumors were allowed to grow to either about 100 mm^3 or about 700^3. Each group contained 6 mice. Canstatin in sterile PBS was injected I.P. daily at a concentration of 10 mg/kg for 10 days. The control group received the same volume of PBS. The results are shown in FIGS. 17C (100 mm^3 tumors) and […] (700 mm^3 tumors). In both groups, the Canstatin-treated (.box-solid.) tumors actually shrank relative to the controls (□). Tumstatin's effect on another established primary tumors in mice was also studied. […] Tumstatin was intraperitoneally injected daily (6 mg/kg) for 10 days in sterile PBS. The control group received BSA injections. […] E. Coli-produced Tumstatin at 6 mg/kg inhibited the tumor growth of 786-O human renal cell carcinoma as compared to the BSA control (FIG. 27B). […] Each point represents the mean i SE of 5-6 mice per group. Data points marker with an asterisk were significant, with P<0.05 by one tailed Student's t test. […] The tumors were allowed to grow to a size of about 100-150 mm^3. The mice were then divided into groups of 5, and were injected daily intraperitoneally with 20 mg/kg of the E. Coli-expressed truncated Tumstatin lacking the 53 N-terminal amino acids (Kalluri, R. et al., 1996, J. Biol. Chem. 271:9062-68) for 10 days. Control mice received PBS injection. The results are shown in FIG. 28, which is a graph showing increase in tumor volume (y-axis) against day of treatment (x-axis) for control mice (□) and mice treated with the Tumstatin mutant N53 (●). […] Each point represents the mean ±SE of 5-6 mice/group. Data points marked with an asterisk were significant, with P<0.05 by one-tailed Student's t test.

HUVEC cells = test: Cell adhesion assay with integrin blocking antibodies; assay type: cell-based, human; conditions: label = plate coating
Protocol: as §1, §2, §3

WM-164 cells = test: Attachment of melanoma cells to coated plates; assay type: cell-based, human
From the text: Tumstatin and all three of the deletion mutants […] attachment of WM-164 melanoma cells to the plates.

## LQRFTTMPFLFCNVNDVCNF [T3]
C-PAE cells
  attachment to T3-coated plates with anti-αv or anti-β1 integrin antibody: did not inhibit
  attachment to T3 peptide-coated plates with anti-β3 integrin antibody: inhibited by a preincubation with anti-β3 integrin antibody
  inhibition of cell attachment to Tum-4-coated plates by peptide: failed to inhibit
C-PAE cells; 2.5 μg/ml peptide
  inhibition of cell attachment onto Tum-5-coated plates by peptide: significantly inhibited
C-PAE cells; 10 μg/ml peptide, 293-produced Tumstatin coating
  inhibition of cell attachment to Tumstatin-coated plates by peptide: 46.4%
C-PAE cells; 0.1, 1.0, 10.0 μg/ml peptide
  binding to vitronectin-coated plates (2.5 μg/ml) in the presence of peptide: not inhibited

B1: endostatin: tumor associated angiogenesis inhibitor used as comparator (protein, UniProt P39060 1572-1754, looked up)
Endostatin: HSHRDFQPVLHLVALNSPLSGGMRGIRGADFQCFQQARAVGLAGTFRAFLSSRLQDLYSIVRRADRAAVPIVNLKDELLFPSWEALFSGSEGPLKPGARIFSFDGKDVLRHPTWPQKSVWHGSDPNGRRLTESYCETWRTEAPSATGQASSLLGGRLLGQSAASCHHAYIVLCIENSFMTASK
modifications: Endostatin
PC-3 tumors; 5 mg/kg endostatin
  tumor suppression: not able to suppress tumor growth
PC-3 tumors
  tumor volume on day 10: 68.9±16.7 mm^3

B2: Tumstatin: NC1 domain of the α3 chain of type IV collagen, residues 1-244 (SEQ ID NO:10) (protein, listed as Homo sapiens)
chain: GLKGKRGDSGSPATWTTRGFVFTRHSQTTAIPSCPEGTVPLYSGFSFLFVQGNQRAHGQDLGTLGSCLQRFTTMPFLFCNVNDVCNFASRNDYSYWLSTPALMPMNMAPITGRALEPYISRCTVCEGPAIAIAVHSQTTDIPPCPHGWISLWKGFSFIMFTSAGSEGTGQALASPGSCLEEFRASPFLECHGRGTCNYYSNSYSFWLASLNPERMFRKPIPSTVKAGELEKIISRCQVCMKKRH
786-O tumors; 6 mg/kg i.p. daily, start 600-700 mm^3, control 1096±179.7
  tumor volume on day 10: 619±120.7 mm^3
HUVEC cells
  inhibition of HUVEC attachment by antibody to subunits α1 through α4: did not block
  inhibition of HUVEC attachment by αvβ3 antibody and β1 antibody together: 91%
HUVEC cells; 10 μg/ml antibody
  inhibition of HUVEC attachment to coated plates by α5 antibody: 20%
  inhibition of HUVEC attachment to coated plates by α6 antibody: 54%
  inhibition of HUVEC attachment to coated plates by αvβ3 antibody: 80%
  inhibition of HUVEC attachment to coated plates by β1 antibody: 54%
WM-164 cells
  binding of WM-164 cells to coated plates: bind to WM-164 cells
PC-3 tumors
  tumor volume on day 10: 82.9±25.2 mm^3

B3: Tum-1: residues 54 to 244 of Tumstatin, lacking the N-terminal 53 amino acids (SEQ ID NO:22) (protein)
chain: QRAHGQDLGTLGSCLQRFTTMPFLFCNVNDVCNFASRNDYSYWLSTPALMPMNMAPITGRALEPYISRCTVCEGPAIAIAVHSQTTDIPPCPHGWISLWKGFSFIMFTSAGSEGTGQALASPGSCLEEFRASPFLECHGRGTCNYYSNSYSFWLASLNPERMFRKPIPSTVKAGELEKIISRCQVCMKKRH
modifications: Tum-1 (Tumstatin N-53) (amino acids 54-244 of SEQ ID NO10)
786-O tumors; start 100-150 mm^3, 6 mg/kg in the result sentence (20 mg/kg in the method), control 345.0±24.0
  tumor volume on day 10: 110.0±29.0 mm^3
HUVEC cells; 10 μg/ml antibody
  inhibition of HUVEC attachment to coated plates by α6 antibody: did not
  inhibition of HUVEC attachment to coated plates by αvβ3 antibody: inhibited this adhesion
  inhibition of HUVEC attachment to coated plates by β1 antibody: inhibited this adhesion
WM-164 cells
  binding of WM-164 cells to coated plates: bind to WM-164 cells
C-PAE cells; label = plate coating
  inhibition of attachment of C-PAE cells to coated plates by αvβ3 antibody: 55.9%
  inhibition of binding of C-PAE cells to coated plates by αvβ5 antibody: not inhibited
PC-3 tumors; PC3 prostate xenograft model, 5 mg or 20 mg per kilogram
  anti-tumor activity: substantial anti-tumor activity

B4: Tumstatin-44-131: residues 44 to 131 of full-length Tumstatin (SEQ ID NO:33) (protein)
chain: FSFLFVQGNQRAHGQDLGTLGSCLQRFTTMPFLFCNVNDVCNFASRNDYSYWLSTPALMPMNMAPITGRALEPYISRCTVCEGPAIAI
modifications: Tumstatin-45-132 (amino acids 45-132 of SEQ ID NO10)
HUVEC cells; 10 μg/ml antibody
  inhibition of HUVEC attachment to coated plates by αvβ3 antibody: 47.1%
  inhibition of HUVEC attachment to coated plates by β1 antibody: 47.5%
C-PAE cells; label = plate coating
  attachment to coated plates in the presence of RGD peptide (CDCRGDCFC): not inhibited

B5: Canstatin: NC1 domain of the α2 chain of Type IV collagen (SEQ ID NO:6) (protein, listed as Homo sapiens)
chain: VSIGYLLVKHSQTDQEPMCPVGMNKLWSGYSLLYFEGQEKAHNQDLGLAGSCLARFSTMPFLYCNPGDVCYYASRNDKSYWLSTTAPLPMMPVAEDEIKPYISRCSVCEAPAIAIAVHSQDVSIPHCPAGWRSLWIGYSFLMHTAAGDEGGGQSLVSPGSCLEDFRATPFIECNGGRGTCHYYANKYSFWLTTIPEQSFQGSPSADTLKAGLIRTHISRCQVCMKNL
786-O tumors; large (700 mm^3) tumors
  inhibition of tumor growth compared to placebo: 3 fold
786-O tumors; small (100 mm^3) tumors
  inhibition of tumor growth compared to placebo: 4 fold
PC-3 tumors; 3 mg/kg Canstatin
  tumor suppression compared with endostatin: same suppressive effect as 8 mg/kg of endostatin
PC-3 tumors; athymic (nu/nu) mice
  treated tumors, fold less than placebo: 2.4 fold
PC-3 tumors; mouse, in vivo
  condition of mice during treatment: appeared healthy with no signs of wasting

B6: Tum-2: residues 1 to 132 of Tumstatin (SEQ ID NO:23) (protein)
chain: GLKGKRGDSGSPATWTTRGFVFTRHSQTTAIPSCPEGTVPLYSGFSFLFVQGNQRAHGQDLGTLGSCLQRFTTMPFLFCNVNDVCNFASRNDYSYWLSTPALMPMNMAPITGRALEPYISRCTVCEGPAIAI
modifications: Tum-2 (amino acids 1-132 of SEQ ID NO10)
WM-164 cells
  binding of WM-164 cells to coated plates: bind to WM-164 cells
C-PAE cells; label = plate coating
  inhibition of attachment of C-PAE cells to coated plates by αvβ3 antibody: 69.8%
  inhibition of binding of C-PAE cells to coated plates by αvβ5 antibody: not inhibited

B7: Tum-4: residues 181 to 244 of Tumstatin (SEQ ID NO:25) (protein)
chain: EFRASPFLECHGRGTCNYYSNSYSFWLASLNPERMFRKPIPSTVKAGELEKIISRCQVCMKKRH
modifications: Tum-4 (amino acids 181-244 of SEQ ID NO10)
WM-164 cells
  binding of WM-164 cells to coated plates: bind to WM-164 cells
C-PAE cells; label = plate coating
  inhibition of attachment of C-PAE cells to coated plates by αvβ3 antibody: 62.6%
  inhibition of binding of C-PAE cells to coated plates by αvβ5 antibody: not inhibited
